Measured values as given in the nanobody polyreactivity screen of Harvey et al. (2022).

Assay: yeast display, Sf9 membrane polyspecificity reagent, FACS + sequencing; frameworks hold sequencing errors
How it was run: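 Nanobodies from a synthetic yeast display library (Saccharomyces cerevisiae BJ5465), induced 36–48 hours with galactose, were stained 1 hour at 4 °C with 10% biotinylated, detergent-solubilized Sf9 membrane reagent, enriched on streptavidin microbeads, then FACS-sorted. Anti-HA (expression) and streptavidin (reagent binding) fluorescence set low and high (top ~1%) gates. Polyreactivity labels come from the gate of origin. Genes were colony-PCR amplified, MiSeq 2 × 250 sequenced and filtered by CDR length.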

Sequence: QVQLVESGGGLVQAGGSLRLSCAASGRIFSIYAMGWYRQAPGKERELVAAISSRGGSTYYADSVKGRFTISRDNAKNTVYLQMNSLKPEDTAVYYCNAVSWEGYDFDYWGQGTQVTVSS
- polyreactivity (PSR sort gate): high polyreactivity

Sequence: QVQLVESGGGLVQAGGSLRLSCAASGSTFEYNAMGWYRQAPGKESELVASSTNYADSVKGRFTISRDNAKNTVYFQMNSLKPEDTAVYYCSREQGVNRNHDYWGQGTQVTVSS
- polyreactivity (PSR sort gate): low polyreactivity

Sequence: QVQLVESGGGLVQAGGSLRLSCAASGGTFTSYAMGWYRQAPGKERELVAAISWSGGSTYYADSVKGRFTISRDNAKNTVYLQMKSLKPEDTAVYYCAAVFYRYNAVRYDYWGQGTQVTVSS
- polyreactivity (PSR sort gate): high polyreactivity

Sequence: QVQLVESGGGLVQAGGSLRLSCAASGRIFVVYAMGWYRQAPGKERELVATITSGGSTYYADSVKGRFTISRDNAKNTVYLQMNSLKPEDTAVYYCAAYAYIFLDWGGYPYYLYEYDYWGQGTQVTVSS
- polyreactivity (PSR sort gate): low polyreactivity

Sequence: QVQLVESGGGLVQAGGSLRLSCAASGFTFGWYAMGWYRPAPGKERELVAAISRSGGSTYYADSVKGRFTISRDTAKNTVYLQMNSLKPEDTAVYYCAATYPQGKYTYGRSYDYWGQGTQVTVSS
- polyreactivity (PSR sort gate): high polyreactivity

Sequence: QVQLVESGGGLVQAGGSLRLSCAASGNIFSWYAMGWYRQAPGKERELVAAITSGGRTYYADSVKGRFTISRDNAKNTVYLQMNSLKPEDTAVYYCNAVSRLYNRRDYWGQGTQVTVSS
- polyreactivity (PSR sort gate): high polyreactivity

Sequence: QVQLVESGGGLVQAGGSLRLSCAASRSIFLYYAMGWYRQAPGKERELVAAISYSGSGTYADSVKGRFTISRDNAKNTVYLQMNSLKPEDTAVSYCNVDYGSNSYDYWGQGTQVTVSS
- polyreactivity (PSR sort gate): low polyreactivity

Sequence: QVQLVESGGGLVQEGGSLRLSCAASGLIFSEYAMGWSRQAPGKERELVAAIRSDGGSTYYADSVKGRFTISRDNAKNSVYLQMNSLKPEDTAVYYCNAPYRRSAKFRRYGYDYLGQGTQVTVSS
- polyreactivity (PSR sort gate): high polyreactivity

Sequence: QVQLVESGGGLVQAGGSLRLSCAASGFTFWSYAMGWYRQAPGKERELVAAISSSGDSTYYADSVKGRFTISRDNAKNTVYLQMNSLKPEDTAVYYCAAEYQYLSVEVTDIWYLTKYDYWGQGTQVTVSS
- polyreactivity (PSR sort gate): low polyreactivity

Sequence: QVQLVESGGGLVQAGGSLRLSCAASGSTFYPYVMGWYRQAPGKEREFVAAISKSGGSTYYADSVKGRFTISRDNAKNTVYLQMNSLKPEDTAVYYCNKKVASYYRSYYYWGQGTQVTVSS
- polyreactivity (PSR sort gate): high polyreactivity

Sequence: QDQLVESGGGLVQAGGSLRLSCASSGSTFVRYAMGWYRQAPGKERELVATISKSGGSTSYADSVKGRFTISRDNAKNTVYLQMNSLKPEDTAVYYCAADFLYIWAIFDYWGQGTQVTVSS
- polyreactivity (PSR sort gate): low polyreactivity

Sequence: QVQLVESGGGLVQAGGSLRLSCAASGRIFVRYAMGWYRQAPGKERELVAAISSRGGTTYYADSVKGRFTISRDNAKNTVYLQMNSLKPEDTAVYYCAALYDSTYGGVLFDYWGQGTQVTVSS
- polyreactivity (PSR sort gate): low polyreactivity

Sequence: QVQLVESGGGLVQAGGSLRLSCAASGRIFSSYAMGWYRQEPGKERELVAVIRWSSGSTYYADSVKGRFTISRDNAKNTVYLQMNSLKPEDTAVYYCAALRRRSTKFEHDYWGQGTQVTVSS
- polyreactivity (PSR sort gate): high polyreactivity

Sequence: QVQLVDSGGGLVQAGGSLRLSCAASGSIFVHYAMGWSRQAPGKEWELVAAITSSGGRTYYADSVKGRFTISRDNAKKTVYLQMNSLKPEDTEVYYCAAKQGRYNIYSNYDYWGQGTQVTVSS
- polyreactivity (PSR sort gate): high polyreactivity

Sequence: QVQLVESGGGLVQAGRSLRLSCAASGITFGRNTMGWYRQAPGKERELVAAIDSGGNTYADSVKGRFTISRDNAKNTVYLQMNSLKPEDTAVYYCAVDGGEFSSYGYWGQGTQVTVSS
- polyreactivity (PSR sort gate): low polyreactivity

Sequence: QVQLVESGGGLVQAGGSLRLSCAASGNTFYDYGMGWYRQAPGKERELVAGIDGSSTYYADSVKGRFTISRDNAKNTVYLQMNSLKPEDTAVYYCAAYVGSYVSYRAYPRIYYYWGQGTQVTLSS
- polyreactivity (PSR sort gate): low polyreactivity

Sequence: QVQLVESGGGLVQAGGSLRLSCAASGFTFVRYAMGWYRQAPGKDRELVAAISKSGGRTYYTDSVKGRFTISRDNAKTTVYLQMNSLKPEDTAVYYCAADPVSDYYGYGYWGQGTQVTVSS
- polyreactivity (PSR sort gate): high polyreactivity

Sequence: QVQLVESGGGLVQAGGSLRLSCAASGITFTRYAMGWYRQAPGKEREFVAAIRRSGGNTYYADSVKGRFTISRDNAKNNVYLQRNSLKPEESAVYYCPASFRKTSPTRLVDYWGLGTQVTVSS
- polyreactivity (PSR sort gate): low polyreactivity

Sequence: QVQLVESGGGLVQAGGSLRLSCAASRITFIYYAMGSYRQAPGKERELVAAINRSGGSTYYADSVKGRFTISRDIAKNTVYLQMNSLKPEDTAVYYCNADRSYWYIHSEYEYWGQGTQVTVSS
- polyreactivity (PSR sort gate): high polyreactivity

Sequence: QVQLVESGGGLVQAGGSLRLSCAASGIIFRWYTMGWYRQAPGKEREVVAAITGRGGSTYYADSVKGRFTISRDNAKNTVYLQMNSLKPEDSAVYYCAAQYSYPTPYRTYEYDYWGQGTQVTVSS
- polyreactivity (PSR sort gate): high polyreactivity

Sequence: QVQLVESGGGLVQAGGSLRISCAASGFTFYIYAMGWYRQAPGKERELVAAISARGGSTYYADSVKGRFTISRDNAKNTVYLQMNSLKPEDTAVYYCNALYNYAEIYGRGYWGLGTQVTVSS
- polyreactivity (PSR sort gate): high polyreactivity

Sequence: QFQIVESGGGLVQAGGSLRLSCAASGSIFTQYAMGWYRQAPGKERELVAAITSGGSTYADSVKGRFTISRDNAMNTVYLQMKSLKPEDTAVYYCATPYSYRGVTFNYWGQGTQVTVSS
- polyreactivity (PSR sort gate): low polyreactivity

Sequence: QVQLVESGGGLVQAGGSLRLSCAASGRIFTKYAMGWYRQSPGKERELVAAITTSGGSTYYADSVKGRFTISRDNAKNTVYLQMNSLKPEDTAVYYCAARTYHRYDYWGQGTQVTVSS
- polyreactivity (PSR sort gate): high polyreactivity

Sequence: QVQLVESAGGLVQAVGSHRLSSATSGSIFSGNSMGWYRQAPGTQSELVADISQNGGRTYYADSVKGRFTISRDNAKYTVYLQINSLKPEDTGVYYCAARGWYRYGSVYYIGDYWGQGTQGTVSS
- polyreactivity (PSR sort gate): high polyreactivity

Sequence: QVQLVESGGGLVQAGGSLRLSCAASGRIFGYYDMGWYRQAPGKERELVAAITWSGGSTYYADSVKGRFTISRDNAKNTVYLQMNSLKPEDTAVYYCAAEKRYRKAFDYWGQGTQVTVSS
- polyreactivity (PSR sort gate): high polyreactivity

Sequence: QVQRVESGGGLVQAGGSLRLSCAASGNTFWLNAMGWYRQAPGKERELVAAITYTDGSTYADSVKGRFTISRDNAKNTVYLQMNSLKPEDTAVYYCAARYQWDWRDYYYWGQGTQVTVSS
- polyreactivity (PSR sort gate): low polyreactivity

Sequence: QVQLVESGGGLVQAGGSLRLSCAASGRIFQRYAMGWYRPAPGKERELVAAISSRGGRTFYADSVKGRFTISRDNAMYSVYLQMNSLKPEDSAAYYCAATATVGSVTFDYWGQGTQVSVSS
- polyreactivity (PSR sort gate): high polyreactivity

Sequence: QVQLVESGGGLVQAGGSLRLSCAASGFTFRYYAMGWYRQAPGKERELVAAITSRGGNTYYADSVKGRFTISRDNAKNTVYLQMNSLKPEDTAVYYCAARYSTTMDYWGQGTQVTVSS
- polyreactivity (PSR sort gate): high polyreactivity

Sequence: QVQLVESGGGLVQAGGSLRLSCAASGSILYLNAMGWYRQAPGKERELVATISNGGSTNYADSVKGRFTISRDNAKNTVYLQMNSLKPEDTAVYYCAAASGGTVVGEGDYWGQGTQVTVSS
- polyreactivity (PSR sort gate): low polyreactivity

Sequence: QVQLVESGGGLVQAGGSLRLSCAASGSIFWNNAMGWYRQAPGKEREFVATITWSGDSTYYADSVKGRFTISRDNAKNTVYLQMNSLKPEDTAVYYCAALLDYSVADLYSHHVSRYYYWGQGTQVTVSS
- polyreactivity (PSR sort gate): low polyreactivity

Sequence: QVQLVESVGGLLQAGGSLRLSCADSGSTFTTNVMGWYRQAPGKERELVAAISKRGGSTFYADSVKGRFTISRDNAKNTVYRQMNSLKPEDTAVYYCKALRRGVRDPYGYWGQGTQVTVSS
- polyreactivity (PSR sort gate): high polyreactivity
